In the RNAGym collection of RNA variant scans (doi:10.1073/pnas.2313332121):
This sample holds only a part of the variants without activity.

B1: TPR 5TU (parent)
chain: GGAUCUUCUCGAUCUAACAAAAAAGACAAAUCUGCCACAAAGCUUGAGAGCAUCUUCGGAUGCAGAGGCGGCAGCCUUCGGUGGCGCGAUAGCGCCAACGUUCUCAACUAUGACACGCAAAACGCGUGCUCCGUUGAAUGGAGUUUAUCAUG

Variants of: B1
Assay: polymerase ribozyme fitness, log enrichment relative to wild type (log ratio); higher = more active; in vitro selection for triplet polymerase activity
In short: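 To select mutant libraries of each subunit of a heterodimeric triplet polymerase ribozyme, built by PCR and transcribed, each was annealed with a biotinylated primer, partner subunit and triplets, then incubated frozen at −7 °C. Extended constructs were gel-excised, captured on streptavidin beads and amplified by RT-PCR, in one round carried out in triplicate. Illumina sequencing of input and output libraries kept genotypes with ≥10 input reads and ≥1 read per output. Fitness is the base-2 logarithm of genotype enrichment relative to wild-type enrichment, from inverse-variance-weighted replicate averages.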

First: C5G U101G
Second: A22U A30C G81A C116G
The “polymerase ribozyme fitness (log ratio)” value of the first is higher: 0.0588 for the first, -3.8 for the second.

U4A C54U U56A C79G C85U C103G C116U G143C and A19U A30U G62C G65C C96A cannot be ordered by “polymerase ribozyme fitness (log ratio)” value: at most -4.2 for the first, at most -4.2 for the second.

Going from A49C U61G G62A G81C to G62C G83A, the “polymerase ribozyme fitness (log ratio)” value rises from -4.13 to -2.25.

Going from A21G G68A to A28U G50A U55C U139G, the “polymerase ribozyme fitness (log ratio)” value falls from -3.89 to at most -4.2.

First: G86U A142G
Second: C79A A106G U146G
The “polymerase ribozyme fitness (log ratio)” value of the first is higher: -2.35 for the first, at most -4.2 for the second.

A28U G50C C76U C85U C103A C118U U144G and A17U A20C C57U A60U C93A G94U A122C G126U cannot be ordered by “polymerase ribozyme fitness (log ratio)” value: at most -4.2 for the first, at most -4.2 for the second.

Compared with C85G C93G, G50C C57G U77A G81A G86C C96A G143A is lower in “polymerase ribozyme fitness (log ratio)” value: -3.68 for the first, at most -4.2 for the second.

First: C27U G83A C95U U102A G126C
Second: A37C A40U G83A C93G A142G
The “polymerase ribozyme fitness (log ratio)” value of the first is higher: -3.56 for the first, at most -4.2 for the second.

Going from U44A G88C to C116G A120U, the “polymerase ribozyme fitness (log ratio)” value rises from at most -4.2 to 0.554.

Going from A20U C96G A150U to G94A U104C C149U, the “polymerase ribozyme fitness (log ratio)” value falls from 0.47 to -1.16.

A3G U13A U56A C96A A138G and A66G C76U C85A C96U cannot be ordered by “polymerase ribozyme fitness (log ratio)” value: at most -4.2 for the first, at most -4.2 for the second.

Going from U55A C57U to C5A U148G, the “polymerase ribozyme fitness (log ratio)” value falls from 0.643 to -3.62.

Compared with U55C G92C, A28G C79G C85U A115C U151A is lower in “polymerase ribozyme fitness (log ratio)” value: -0.135 for the first, at most -4.2 for the second.

Going from U56A A60G to A41U G58A G74U C108A A120G G141A, the “polymerase ribozyme fitness (log ratio)” value falls from 0.416 to at most -4.2.

First: U55A U56G C75G
Second: U144G U145A
The “polymerase ribozyme fitness (log ratio)” value of the first is lower: -4.19 for the first, 0.571 for the second.

A28U C32G A41U A73G C85G G88U G136A and A17U A29C A66C C95A C132G cannot be ordered by “polymerase ribozyme fitness (log ratio)” value: at most -4.2 for the first, at most -4.2 for the second.

First: A20U A23C C79U G94C C95U U148A
Second: A52C G143C
The “polymerase ribozyme fitness (log ratio)” value of the first is lower: at most -4.2 for the first, -3.51 for the second.

A17U A39C A60C G86C C87A and A16U A41G C51U G74C C95U C103U C118U G133A cannot be ordered by “polymerase ribozyme fitness (log ratio)” value: at most -4.2 for the first, at most -4.2 for the second.

Going from U4A A17C G59C A119G to U13A A40U U55A C129A, the “polymerase ribozyme fitness (log ratio)” value falls from -0.404 to at most -4.2.

Compared with A21U A29U U33G C35U G81U G84A, U31A A49G C105U is higher in “polymerase ribozyme fitness (log ratio)” value: -4.1 for the first, -0.707 for the second.

First: C27U G34A A66G A113C A121C
Second: A19U C54U U134C A150C
The “polymerase ribozyme fitness (log ratio)” value of the first is lower: at most -4.2 for the first, -2.5 for the second.

Going from U53A G81A C85A C131U to A47C C57A G94A U144G, the “polymerase ribozyme fitness (log ratio)” value rises from -4.19 to 1.12.

First: C14A C35U G58A G86A C96U
Second: U7G A64G C87A C105A U144G
The “polymerase ribozyme fitness (log ratio)” value of the first is higher: -3.96 for the first, at most -4.2 for the second.

First: U4G U56G C85A G141C
Second: U4C C18G A52G C54U G70A A91C C93A G128U G133C U151C
The “polymerase ribozyme fitness (log ratio)” value of the first is higher: -2.61 for the first, at most -4.2 for the second.

Going from G94C A113G to U6A A12C A16U A19U C75G G84C A97G A98U U102A G124U, the “polymerase ribozyme fitness (log ratio)” value falls from -2.8 to at most -4.2.

First: G88U C149U
Second: C131U U144G
The “polymerase ribozyme fitness (log ratio)” value of the first is lower: at most -4.2 for the first, -0.864 for the second.

G11U A23U C57U G86A and G42U U55G G59A G88U C96G A98G C118G cannot be ordered by “polymerase ribozyme fitness (log ratio)” value: at most -4.2 for the first, at most -4.2 for the second.

First: A17U C95U
Second: A24U C38G C57G G83C A91U C105A C149A
The “polymerase ribozyme fitness (log ratio)” value of the first is higher: -0.895 for the first, at most -4.2 for the second.

Going from A24U G58C U104A G141U to A41C C57U C96U, the “polymerase ribozyme fitness (log ratio)” value rises from -1.93 to -0.458.

G136C U151G and G46C G50C A89G A107C G152C cannot be ordered by “polymerase ribozyme fitness (log ratio)” value: at most -4.2 for the first, at most -4.2 for the second.

Going from G83A C99U to U53A C54U, the “polymerase ribozyme fitness (log ratio)” value rises from -2.05 to -0.319.

U4A C38U A40U G42U A73G U82C G94U A107G and A22C A24G C51G A52C U56A A121C cannot be ordered by “polymerase ribozyme fitness (log ratio)” value: at most -4.2 for the first, at most -4.2 for the second.

Compared with C32U U61G, G50A G83C U146G is higher in “polymerase ribozyme fitness (log ratio)” value: -3.73 for the first, -2.55 for the second.

Going from G46A C85A to A39G G70A U77G G141A A142C, the “polymerase ribozyme fitness (log ratio)” value falls from -2.16 to at most -4.2.

Compared with A30G C57U C63U G68C C95U A120C C125G, U130C U144C A147C is higher in “polymerase ribozyme fitness (log ratio)” value: at most -4.2 for the first, -1.95 for the second.

C10U G59A C93U A137G and C14U C85A G140A cannot be ordered by “polymerase ribozyme fitness (log ratio)” value: at most -4.2 for the first, at most -4.2 for the second.

Compared with C8A G11A C63U G83C U130G G152C, U111C G117U is higher in “polymerase ribozyme fitness (log ratio)” value: at most -4.2 for the first, -4.09 for the second.

First: A98U C129U
Second: A49U U55G C103A U111C A138G G152A
The “polymerase ribozyme fitness (log ratio)” value of the first is higher: 0.463 for the first, at most -4.2 for the second.

First: U56G C76A U77C C93G C105A U109G
Second: A22U A52C G65A C132G G140U
The “polymerase ribozyme fitness (log ratio)” value of the first is lower: at most -4.2 for the first, -3.17 for the second.

C14G A16G A22C A60U C87U C93U A121C and C35A C79A G83A C99A cannot be ordered by “polymerase ribozyme fitness (log ratio)” value: at most -4.2 for the first, at most -4.2 for the second.

Compared with C72U A147C, C93G A98C is lower in “polymerase ribozyme fitness (log ratio)” value: -1.72 for the first, -2.81 for the second.

With A28G G80A G141A the “polymerase ribozyme fitness (log ratio)” value was at most -4.2.
